The values that follow come from patent US20070136897A1, “Nucleic acid molecules encoding hyperactive nucleoside di-phosphate kinase 2 and uses thereof” (priority 2005, published 2007).

The target in data set [1] is T1, Arabidopsis thaliana NDPK2 C-terminal deletion mutant R230Stop (80-229aa), SEQ ID NO: 2 (Arabidopsis thaliana, UniProt O64903).
T1 sequence (O64903 80-229): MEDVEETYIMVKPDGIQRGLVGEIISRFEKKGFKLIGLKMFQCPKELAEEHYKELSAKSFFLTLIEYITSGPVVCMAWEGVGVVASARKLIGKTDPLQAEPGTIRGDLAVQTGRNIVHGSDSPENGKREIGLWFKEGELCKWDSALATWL
The data set can be described thus: Km of NDPK2 mutant R230Stop for nucleotides (γ-phosphate exchange activity assay, LDH-PK-coupled). Conditions: read-out: Km (ATP); dCDP as acceptor. As to the method:
(§1) In studying the phytochrome binding site in NDPK2, NDPK2 mutants, including the C-terminal deletion mutants, kinase site mutant H197C, and Kpn loop mutant P175S, were made and tested in the binding assays with the Pfr form of native oat phyA (FIG. 2A). […] To investigate the mechanism of hyperactivity of these NDPK2 mutants, the nucleotide affinity was investigated.
(§2) Full-length Arabidopsis NDPK2 was prepared as previously described (Im et al., 2004). The C-terminal deletion mutants of NDPK2 were prepared by polymerase chain reactions using following primers: R230Stop (80-229aa) with 3′ primer: 5′-[…]-[…]-3′ (SmaI) (SEQ ID NO: 8); L225Stop (80-224aa) with 3′ primer: 5′-[…]-[…]

Data set [2] has as its target Arabidopsis thaliana NDPK2 C-terminal deletion mutant L225Stop (80-224aa), SEQ ID NO: 3 (Arabidopsis thaliana, UniProt O64903). Conditions: read-out: Km (ATP); dCDP as acceptor. The procedure:
as §1, §2

Substrate in data set [3]: Nc1nc2c(ncn2[C@@H]2O[C@H](COP(=O)(O)OP(=O)(O)O)[C@@H](O)[C@H]2O)c(=O)[nH]1
The data set can be described thus: purified protein, by the assay type. Conditions: other: ATP as donor; 37.0 °C.

Substrate in data set [4]: Nc1ncnc2c1ncn2[C@@H]1O[C@H](COP(=O)(O)OP(=O)(O)OP(=O)(O)O)[C@@H](O)[C@H]1O
The data set can be described thus: Km of NDPK2 for nucleotides (γ-phosphate exchange activity assay, LDH-PK-coupled). The format is biochemical, Arabidopsis thaliana. The note with it: other: dCDP as acceptor; 37.0 °C.
Description: NDPK proteins with a cleavable GST tag were expressed in Escherichia coli strain BL21 (DE3). The bacterial cells were induced for 4 h with 1 mM isopropyl β-D-thiogalactopyranoside (IPTG) at 310 K and then harvested by centrifugation at 4,500×g for 20 min. The cells were then resuspended in lysis buffer (1× PBS, phosphate-buffered saline) and lysed by sonication, after which the lysate was centrifuged at 16,000×g for 30 min. The resultant supernatant was applied to a glutathione-sepharose 4B affinity column pre-equilibrated with lysis buffer, after which the column was washed with ten bed volumes of lysis buffer. The GST fusion protein bound to the column was eluted with a buffer of 10 mM glutathione and 50 mM Tris-HCl (pH 8.0). GST Tags were cleaved from NDPKs by treatment with thrombin for 2 days at room temperature. The samples were then purified by size exclusion chromatography using a Superdex 200 column (Pharmacia Biotech) pre-equilibrated with a buffer of 50 mM NaCl and 10 mM Tris-HCl (pH 8.0), after which the fractions containing NDPKs were collected. […]
NDPK2 γ-phosphate exchange activity was measured as previously described (20) with minor modifications. […] NDPK2 activity was measured by monitoring the LDH-PK-coupled NADH decrease at 340 nm. […]

For data set [5], the target named is T2, purified native oat phytochrome A, Pfr form, P06593.
T2 chain: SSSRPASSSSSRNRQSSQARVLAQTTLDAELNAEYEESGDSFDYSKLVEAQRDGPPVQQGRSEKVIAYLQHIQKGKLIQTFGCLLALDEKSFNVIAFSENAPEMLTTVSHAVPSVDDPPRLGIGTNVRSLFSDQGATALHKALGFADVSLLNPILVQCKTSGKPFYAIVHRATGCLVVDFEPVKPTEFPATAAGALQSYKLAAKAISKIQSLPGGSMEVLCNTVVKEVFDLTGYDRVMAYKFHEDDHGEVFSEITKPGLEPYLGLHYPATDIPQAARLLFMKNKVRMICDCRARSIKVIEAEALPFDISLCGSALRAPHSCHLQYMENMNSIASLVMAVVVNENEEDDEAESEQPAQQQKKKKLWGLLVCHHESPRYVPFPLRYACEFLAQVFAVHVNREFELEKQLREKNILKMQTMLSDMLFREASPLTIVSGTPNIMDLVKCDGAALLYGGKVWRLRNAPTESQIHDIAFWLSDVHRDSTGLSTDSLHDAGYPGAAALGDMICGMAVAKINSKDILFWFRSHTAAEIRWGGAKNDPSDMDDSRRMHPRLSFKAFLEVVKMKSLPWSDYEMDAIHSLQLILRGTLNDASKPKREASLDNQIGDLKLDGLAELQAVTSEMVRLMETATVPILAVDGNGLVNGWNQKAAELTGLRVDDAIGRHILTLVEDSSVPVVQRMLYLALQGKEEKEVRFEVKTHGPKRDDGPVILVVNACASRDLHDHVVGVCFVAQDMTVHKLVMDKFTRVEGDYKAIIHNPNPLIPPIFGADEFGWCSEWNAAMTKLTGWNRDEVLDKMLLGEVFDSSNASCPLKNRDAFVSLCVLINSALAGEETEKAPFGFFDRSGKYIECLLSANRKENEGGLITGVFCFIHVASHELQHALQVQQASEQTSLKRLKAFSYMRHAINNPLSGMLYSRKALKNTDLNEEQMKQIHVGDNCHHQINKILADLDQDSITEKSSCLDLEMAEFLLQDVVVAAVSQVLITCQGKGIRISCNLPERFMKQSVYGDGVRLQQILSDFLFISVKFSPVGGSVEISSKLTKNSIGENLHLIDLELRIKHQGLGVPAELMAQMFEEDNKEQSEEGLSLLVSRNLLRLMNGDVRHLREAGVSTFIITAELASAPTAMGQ

The target of data set [6] is T3, purified native oat phytochrome A, Pfr form (oat, UniProt P06593 2-1129).
T3 construct: also called phyA; Pfr phytochrome
T3 sequence (looked up): T2 chain
Description: in vitro immunoprecipitation with native oat phyA, western blot. An excerpt:
In studying the phytochrome binding site in NDPK2, NDPK2 mutants, including the C-terminal deletion mutants, kinase site mutant H197C, and Kpn loop mutant P175S, were made and tested in the binding assays with the Pfr form of native oat phyA (FIG. 2A). […] Moreover, no interactions between Pfr phytochrome and mutants N204Stop and S199Stop were observed. […] Results from the γ-phosphate exchange activity assay were consistent with the in vitro binding assay. […] Thus, R230Stop and L225Stop were hyperactive NDPK2 that binds normally to its upstream signaling molecule, phytochrome. To investigate the mechanism of hyperactivity of these NDPK2 mutants, the nucleotide affinity was investigated. By using two natural nucleotide substrates of NDPK2, ATP and GDP, the Kₘ values were measured to examine the relationship between the nucleotide affinity and NDPK activity in NDPK2 hyperactive mutants (Table 1). […] Therefore, it appears that a higher nucleotide affinity corresponds to a higher NDPK activity.
The in vitro binding assays of phytochrome and NDPK2 were performed by incubating 10 μg of phytochrome and 20 μg of NDPK2 in TBS buffer (50 mM Tris-HCl (pH 7.5), 150 mM NaCl), containing 5 mM MgCl₂, 2 mM dCDP, 0.1% NP40 and protease inhibitors, at 4° C. for 30 min. […]
On the technique in general: A western blot detects proteins with antibodies after separation by electrophoresis.

As for `Nc1ncnc2c1ncn2[C@@H]1O[C@H](COP(=O)(O)OP(=O)(O)OP(=O)(O)O)[C@@H](O)[C@H]1O` [ATP], the Km was 211 µM in data set [1] and 213 µM in data set [2].

B1: Arabidopsis thaliana nucleoside diphosphate kinase 2 (NDPK2), wild type, SEQ ID NO: 1 (Arabidopsis thaliana) (protein)
chain: ASSSAESGIFLPHLVASMEDVEETYIMVKPDGIQRGLVGEIISRFEKKGFKLIGLKMFQCPKELAEEHYKELSAKSFFLTLIEYITSGPVVCMAWEGVGVVASARKLIGKTDPLQAEPGTIRGDLAVQTGRNIVHGSDSPENGKREIGLWFKEGELCKWDSALATWLRE
notes: hexamer
In the case of B1, the Km in data set [3] amounted to 0.231 mM mM; in data set [4], 0.286 mM mM.

B2: NDPK2 C-terminal deletion mutant S199Stop (enzyme)
chain: MEDVEETYIMVKPDGIQRGLVGEIISRFEKKGFKLIGLKMFQCPKELAEEHYKELSAKSFFLTLIEYITSGPVVCMAWEGVGVVASARKLIGKTDPLQAEPGTIRGDLAVQTGRNIVHG
notes: also called S199Stop (80-198aa)
Turning to B2, in data set [5], the “stimulation by Pfr phytochrome in the γ-phosphate exchange activity assay” value is “mutants K214Stop, N204Stop, and S199Stop were not stimulated under the identical conditions”. For the same molecule, in data set [6], the binding result is listed as “no binding”.

B3: NDPK2 C-terminal deletion mutant N204Stop (enzyme)
chain: MEDVEETYIMVKPDGIQRGLVGEIISRFEKKGFKLIGLKMFQCPKELAEEHYKELSAKSFFLTLIEYITSGPVVCMAWEGVGVVASARKLIGKTDPLQAEPGTIRGDLAVQTGRNIVHGSDSPE
notes: also called N204Stop (80-203aa)
In the case of B3, in data set [5], the “stimulation by Pfr phytochrome in the γ-phosphate exchange activity assay” value is “mutants K214Stop, N204Stop, and S199Stop were not stimulated under the identical conditions”. Further, in data set [6], the binding result is reported as “no binding”.

B4: NDPK2 C-terminal deletion mutant K214Stop (protein)
chain: MEDVEETYIMVKPDGIQRGLVGEIISRFEKKGFKLIGLKMFQCPKELAEEHYKELSAKSFFLTLIEYITSGPVVCMAWEGVGVVASARKLIGKTDPLQAEPGTIRGDLAVQTGRNIVHGSDSPENGKREIGLWF
With B4, the “stimulation by Pfr phytochrome in the γ-phosphate exchange activity assay” value in data set [5] is “mutants K214Stop, N204Stop, and S199Stop were not stimulated under the identical conditions”.

B5: NDPK2 C-terminal deletion mutant L225Stop (protein)
chain: MEDVEETYIMVKPDGIQRGLVGEIISRFEKKGFKLIGLKMFQCPKELAEEHYKELSAKSFFLTLIEYITSGPVVCMAWEGVGVVASARKLIGKTDPLQAEPGTIRGDLAVQTGRNIVHGSDSPENGKREIGLWFKEGELCKWDSA
As to B5, the “stimulation by Pfr phytochrome in the γ-phosphate exchange activity assay” value in data set [5] was “Mutants R230Stop and L225Stop were stimulated by Pfr phytochrome significantly”. Besides, the Km in data set [3] was 0.191 mM mM.

B6: NDPK2 C-terminal deletion mutant R230Stop (protein)
chain: T1 sequence (O64903 80-229)
Consider B6, for which the “stimulation by Pfr phytochrome in the γ-phosphate exchange activity assay” value in data set [5] was “Mutants R230Stop and L225Stop were stimulated by Pfr phytochrome significantly”. Also, in data set [3], the Km was 0.203 mM mM.
